Measurements as given in patent US20110263827A1 (AbbVie / Abbott, published 2011).

What was measured:
EGFR [1] = target: T1, EGFR (UniProt P00533 25-645, limits assumed, biotinylated); experiment: direct bind ELISA, C-term VD;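 further: ELISA with antibody or DVD-Ig preparations applied to target antigen-coated plates for 1 h at room temperature, TMB colour development, absorbance read at 450 nm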
T1 construct: ELISA antigen; construct not described

VEGF [2] = target: T2, VEGF (UniProt P15692-4 27-191, limits assumed, biotinylated); experiment: direct bind ELISA, N-term VD;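 further: antibody or DVD-Ig preparations bound to immobilized target antigen on ELISA plates, 1 h at room temperature, TMB detection read as absorbance at 450 nm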
T2 construct: ELISA antigen

VEGF [3] = target: T2, VEGF; experiment: direct bind ELISA, C-term VD;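 further: ELISA with antibody or DVD-Ig preparations applied to target antigen-coated plates for 1 h at room temperature, TMB colour development, absorbance read at 450 nm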
EGFR [4] = target: T1, EGFR; experiment: direct bind ELISA, N-term VD;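 further: antibody or DVD-Ig preparations bound to immobilized target antigen on ELISA plates, 1 h at room temperature, TMB detection read as absorbance at 450 nm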

| Binder | EC50 (EGFR [1]) | EC50 (VEGF [2]) | EC50 (VEGF [3]) | EC50 (EGFR [4]) |
| --- | --- | --- | --- | --- |
| DVD792 (bispecific antibody, DVD-Ig; HC L, LC L; variable parts only) VH: EVQLVESGGGLVQPGGSLRLSCAASGFTINASWIHWVRQAPGKGLEWVGAIYPYSGYTNYADSVKGRFTISADTSKNTAYLQMNSLRAEDTAVYYCARWGHSTSPWAMDYWGQGTLVTVSSASTKGPSVFPLAPQVQLQESGPGLVKPSQTLSLTCTVSGYSISSDFAWNWIRQPPGKGLEWMGYISYSGNTRYQPSLKSRITISRDTSKNQFFLKLNSVTAADTATYYCVTAGRGFPYWGQGTLVTVSS VL: DIQMTQSPSSLSASVGDRVTITCRASQVIRRSLAWYQQKPGKAPKLLIYAASNLASGVPSRFSGSGSGTDFTLTISSLQPEDFATYYCQQSNTSPLTFGQGTKVEIKRTVAAPSVFIFPPDIQMTQSPSSMSVSVGDRVTITCHSSQDINSNIGWLQQKPGKSFKGLIYHGTNLDDGVPSRFSGSGSGTDYTLTISSLQPEDFATYYCVQYAQFPWTFGGGTKLEIKR | 48.6 nM | 0.82 nM |  |  |
| DVD822 (bispecific antibody, DVD-Ig; HC L, LC S; variable parts only) VH: EVQLVESGGGLVQPGGSLRLSCAASGFTINASWIHWVRQAPGKGLEWVGAIYPYSGYTNYADSVKGRFTISADTSKNTAYLQMNSLRAEDTAVYYCARWGHSTSPWAMDYWGQGTLVTVSSASTKGPSVFPLAPQVQLQESGPGLVKPSQTLSLTCTVSGYSISSDFAWNWIRQPPGKGLEWMGYISYSGNTRYQPSLKSRITISRDTSKNQFFLKLNSVTAADTATYYCVTAGRGFPYWGQGTLVTVSS VL: DIQMTQSPSSLSASVGDRVTITCRASQVIRRSLAWYQQKPGKAPKLLIYAASNLASGVPSRFSGSGSGTDFTLTISSLQPEDFATYYCQQSNTSPLTFGQGTKVEIKRTVAAPDIQMTQSPSSMSVSVGDRVTITCHSSQDINSNIGWLQQKPGKSFKGLIYHGTNLDDGVPSRFSGSGSGTDYTLTISSLQPEDFATYYCVQYAQFPWTFGGGTKLEIKR | 90 nM | 0.72 nM |  |  |
| DVD780 (bispecific antibody, DVD-Ig; HC L, LC L; variable parts only) VH: EVQLVESGGGLVQPGGSLRLSCAASGYTFTNYGMNWVRQAPGKGLEWVGWINTYTGEPTYAADFKRRFTFSLDTSKSTAYLQMNSLRAEDTAVYYCAKYPHYYGSSHWYFDVWGQGTLVTVSSASTKGPSVFPLAPQVQLQESGPGLVKPSQTLSLTCTVSGYSISSDFAWNWIRQPPGKGLEWMGYISYSGNTRYQPSLKSRITISRDTSKNQFFLKLNSVTAADTATYYCVTAGRGFPYWGQGTLVTVSS VL: DIQMTQSPSSLSASVGDRVTITCSASQDISNYLNWYQQKPGKAPKVLIYFTSSLHSGVPSRFSGSGSGTDFTLTISSLQPEDFATYYCQQYSTVPWTFGQGTKVEIKRTVAAPSVFIFPPDIQMTQSPSSMSVSVGDRVTITCHSSQDINSNIGWLQQKPGKSFKGLIYHGTNLDDGVPSRFSGSGSGTDYTLTISSLQPEDFATYYCVQYAQFPWTFGGGTKLEIKR | 409 nM | 2.19 nM |  |  |
| DVD810 (bispecific antibody, DVD-Ig; HC L, LC S; variable parts only) VH: EVQLVESGGGLVQPGGSLRLSCAASGYTFTNYGMNWVRQAPGKGLEWVGWINTYTGEPTYAADFKRRFTFSLDTSKSTAYLQMNSLRAEDTAVYYCAKYPHYYGSSHWYFDVWGQGTLVTVSSASTKGPSVFPLAPQVQLQESGPGLVKPSQTLSLTCTVSGYSISSDFAWNWIRQPPGKGLEWMGYISYSGNTRYQPSLKSRITISRDTSKNQFFLKLNSVTAADTATYYCVTAGRGFPYWGQGTLVTVSS VL: DIQMTQSPSSLSASVGDRVTITCSASQDISNYLNWYQQKPGKAPKVLIYFTSSLHSGVPSRFSGSGSGTDFTLTISSLQPEDFATYYCQQYSTVPWTFGQGTKVEIKRTVAAPDIQMTQSPSSMSVSVGDRVTITCHSSQDINSNIGWLQQKPGKSFKGLIYHGTNLDDGVPSRFSGSGSGTDYTLTISSLQPEDFATYYCVQYAQFPWTFGGGTKLEIKR | 228 nM | 0.33 nM |  |  |
| DVD757 (bispecific antibody, DVD-Ig; HC S, LC S; variable parts only) VH: QVQLQESGPGLVKPSQTLSLTCTVSGYSISSDFAWNWIRQPPGKGLEWMGYISYSGNTRYQPSLKSRITISRDTSKNQFFLKLNSVTAADTATYYCVTAGRGFPYWGQGTLVTVSSASTKGPEVQLVESGGGLVQPGGSLRLSCAASGFTISDYWIHWVRQAPGKGLEWVAGITPAGGYTYYADSVKGRFTISADTSKNTAYLQMNSLRAEDTAVYYCARFVFFLPYAMDYWGQGTLVTVSS VL: DIQMTQSPSSMSVSVGDRVTITCHSSQDINSNIGWLQQKPGKSFKGLIYHGTNLDDGVPSRFSGSGSGTDYTLTISSLQPEDFATYYCVQYAQFPWTFGGGTKLEIKRTVAAPDIQMTQSPSSLSASVGDRVTITCRASQDVSTAVAWYQQKPGKAPKLLIYSASFLYSGVPSRFSGSGSGTDFTLTISSLQPEDFATYYCQQSYTTPPTFGQGTKVEIKR |  |  | 528 nM | 14.5 nM |
| DVD790 (bispecific antibody, DVD-Ig; HC L, LC L; variable parts only) VH: EVQLVESGGGLVQPGGSLRLSCAASGFTISDYWIHWVRQAPGKGLEWVAGITPAGGYTYYADSVKGRFTISADTSKNTAYLQMNSLRAEDTAVYYCARFVFFLPYAMDYWGQGTLVTVSSASTKGPSVFPLAPQVQLQESGPGLVKPSQTLSLTCTVSGYSISSDFAWNWIRQPPGKGLEWMGYISYSGNTRYQPSLKSRITISRDTSKNQFFLKLNSVTAADTATYYCVTAGRGFPYWGQGTLVTVSS VL: DIQMTQSPSSLSASVGDRVTITCRASQDVSTAVAWYQQKPGKAPKLLIYSASFLYSGVPSRFSGSGSGTDFTLTISSLQPEDFATYYCQQSYTTPPTFGQGTKVEIKRTVAAPSVFIFPPDIQMTQSPSSMSVSVGDRVTITCHSSQDINSNIGWLQQKPGKSFKGLIYHGTNLDDGVPSRFSGSGSGTDYTLTISSLQPEDFATYYCVQYAQFPWTFGGGTKLEIKR | 76.8 nM | 15.9 nM |  |  |
| DVD820 (bispecific antibody, DVD-Ig; HC L, LC S; variable parts only) VH: EVQLVESGGGLVQPGGSLRLSCAASGFTISDYWIHWVRQAPGKGLEWVAGITPAGGYTYYADSVKGRFTISADTSKNTAYLQMNSLRAEDTAVYYCARFVFFLPYAMDYWGQGTLVTVSSASTKGPSVFPLAPQVQLQESGPGLVKPSQTLSLTCTVSGYSISSDFAWNWIRQPPGKGLEWMGYISYSGNTRYQPSLKSRITISRDTSKNQFFLKLNSVTAADTATYYCVTAGRGFPYWGQGTLVTVSS VL: DIQMTQSPSSLSASVGDRVTITCRASQDVSTAVAWYQQKPGKAPKLLIYSASFLYSGVPSRFSGSGSGTDFTLTISSLQPEDFATYYCQQSYTTPPTFGQGTKVEIKRTVAAPDIQMTQSPSSMSVSVGDRVTITCHSSQDINSNIGWLQQKPGKSFKGLIYHGTNLDDGVPSRFSGSGSGTDYTLTISSLQPEDFATYYCVQYAQFPWTFGGGTKLEIKR | 107 nM | 4.08 nM |  |  |
| DVD759 (bispecific antibody, DVD-Ig; HC S, LC S; variable parts only) VH: QVQLQESGPGLVKPSQTLSLTCTVSGYSISSDFAWNWIRQPPGKGLEWMGYISYSGNTRYQPSLKSRITISRDTSKNQFFLKLNSVTAADTATYYCVTAGRGFPYWGQGTLVTVSSASTKGPEVQLVESGGGLVQPGGSLRLSCAASGFTINASWIHWVRQAPGKGLEWVGAIYPYSGYTNYADSVKGRFTISADTSKNTAYLQMNSLRAEDTAVYYCARWGHSTSPWAMDYWGQGTLVTVSS VL: DIQMTQSPSSMSVSVGDRVTITCHSSQDINSNIGWLQQKPGKSFKGLIYHGTNLDDGVPSRFSGSGSGTDYTLTISSLQPEDFATYYCVQYAQFPWTFGGGTKLEIKRTVAAPDIQMTQSPSSLSASVGDRVTITCRASQVIRRSLAWYQQKPGKAPKLLIYAASNLASGVPSRFSGSGSGTDFTLTISSLQPEDFATYYCQQSNTSPLTFGQGTKVEIKR |  |  | 128 nM | 7.01 nM |
